The target of assay [1] is T1, Oncostatin M (Homo sapiens, UniProt P13725).
T1 construct: Oncostatin M (OSM), the antigen injected in SPR; also called OSM
Briefly: SPR; Biacore 8K+; antibody captured on a Protein A chip, antigen injected (typically 0.16, 0.8, 4, 20 and 100 nM; 180 s association, 600 s dissociation, 30 µl/min); HBS-EP buffer pH 7.4, 0.15 M NaCl; single cycle or multi cycle kinetics; 1:1 binding model. Particulars: both partners purified. (Surface plasmon resonance follows binding to a sensor surface in real time, without labels.)

Assay [2] concerns the target T2, Human epidermal growth factor receptor 2 (Homo sapiens, UniProt P04626).
T2 construct: ERBB2), the antigen injected in SPR; also called HER2; ERBB2
The description is as above. The settings on record: both partners purified.

T1 sequence (P13725 26-221): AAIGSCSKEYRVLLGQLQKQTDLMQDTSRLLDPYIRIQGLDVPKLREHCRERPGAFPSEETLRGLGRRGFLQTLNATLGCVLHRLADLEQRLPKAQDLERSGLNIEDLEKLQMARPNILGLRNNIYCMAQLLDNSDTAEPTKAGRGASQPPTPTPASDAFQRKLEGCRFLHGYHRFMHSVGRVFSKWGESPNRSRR

B1: seed OSM-N021 (antibody, V domains shown)
VH: EVQLVESGGGLVQPGGSLRLSCAASGFTFNIYSMNWVRQAPGKGLEWISYISGNSNTIYYADSVKGRFTISRDNAKNSVYLQMNSLRDEDTAVYYCARSLLRYFDWLSAFDIWGQGTMVTVSS
VL: EIVLTQSPGTLSLSPGERATLSCRASQSVGSSYLAWYQQRPGQAPRLLIHGASSRATGIPDRFSGSGSGTDFTLTISGLEPEDVAVYYCQQYGSSPLTFGGGTKVEIK
notes: IgG in SPR; the Fab was crystallised; source: Expi293F, transient (GLFs), purified (Protein A)
For the molecule B1, the binding result in assay [1] is on record as “binds”.

B2: design 9N7O (antibody, V domains shown)
VH: EVQLVESGGGLVQPGGSLRLSCAASGFTFTIYSMNWVRQAPGKGLEWISYISSGSNTIYYADSVKGRFTISRDNAKNSLYLQMNSLRDEDTAVYYCARSSLRYFDWLSYFDYWGQGTMVTVSS
VL: EIVLTQSPGTLSLSPGERATLSCRASQSVGSSYLAWYQQRPGQAPRLLIHGASSRATGIPDRFSGSGSGTDFTLTISGLEPEDVAVYYCQQYGSSPLTFGGGTKVEIK
notes: the Fab of this design is deposited as PDB 9N7O (heavy chain); the Fab of this design is deposited as PDB 9N7O (light chain); IgG in SPR; the Fab (CHO) was crystallised; also called design of seed OSM-N021 with S+Y mutations in the stem region of CDRH3; source: Expi293F, transient (GLFs), purified (Protein A)
On to B2, for which, in assay [1], the “fold improvement in affinity relative to the seed OSM-N021” value is ~4.5 fold and the “ΔpKD relative to the seed OSM-N021” value amounted to 0.65.

B3: design 9N7M (antibody, V domains shown)
VH: EVQLVESGGGLVQPGGSLRLSCAASGFTFNIYSMNWVRQAPGKGLEWISYISSGSNTIYYADSVKGRFTISRDNAENSLYLQMNSLRDEDTAVYYCARSGLRYFDWLSYFDIWGQGTLVTVSS
VL: EIVLTQSPGTLSLSPGERATLSCRASQSVGSSYLAWYQQRPGQAPRLLIHGASSRATGIPDRFSGSGSGTDFTLTISGLEPEDVAVYYCQQYGSSPLTFGGGTKVEIK
notes: the Fab of this design is deposited as PDB 9N7M (heavy chain); the Fab of this design is deposited as PDB 9N7M (light chain); IgG in SPR; the Fab (CHO) was crystallised; also called design of seed OSM-N021 with G+Y mutations in the stem region of CDRH3; source: Expi293F, transient (GLFs), purified (Protein A)
Consider B3, for which, in assay [1], the “fold improvement in affinity relative to the seed OSM-N021” value was determined as 3.6 fold and the “ΔpKD relative to the seed OSM-N021” value was found to be 0.56.

B4: ERBB2-P00873 (antibody, V domains shown)
VH: VQLVESDGGGLVQQGGSLRLSCAASGFNIKDRYIHWVRQAPGKGLEWVARIYPTNGYTRYADRVKGRFTISADTSKNTAYLQMFSLRAEDTAVYYCSRWGGDGFYAMDYWGQGTLVTVSS
VL: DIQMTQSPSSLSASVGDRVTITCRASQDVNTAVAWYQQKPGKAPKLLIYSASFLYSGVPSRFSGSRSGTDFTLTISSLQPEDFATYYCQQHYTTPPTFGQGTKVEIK
notes: as the heavy chain of m2 (trastuzumab, PDB 1N8Z) with changes; as the light chain of m2 (trastuzumab, PDB 1N8Z); Expressed as IgG; also called design of hu4D5 (5 edits, 1 insertion); source: Expi293F, transient (GLFs), purified (Protein A)
Consider B4, for which, in assay [2], the “fold improvement in binding relative to trastuzumab (hu4D5)” value is > 4 fold and the “ΔpKD relative to trastuzumab (hu4D5)” value stood at 0.688.
